{"source": "patent US20070066521", "about": "“Short RNA-binding proteins” (published 2007)", "binders": {"B1": {"name": "ta-siRNA siR255::siR255* duplex (dsRNA)", "RNA 1": "AUGCGAUACAACCUGAAUCUU", "RNA 2": "GAGAUUCAGGUUGCAUCGCGC"}, "B2": {"name": "DmiR-165::DmiR-165* DNA duplex (dsDNA)", "DNA 1": "TCGGACCAGGCTTCATCCCCC", "DNA 2": "GGGGGATGAAGCCTGGTCCGA"}, "B3": {"name": "pre-miR159 first strand (ssRNA)", "RNA": "UAAAAAAGGAUUUGGUUAUAUGGAUUGCAUAUCUCAGGAGCUUUAACUUGCCCUGUUAAUGCUUUUACUCUUCUUUGGCUUGAAGGGAGCUCUAC"}, "B4": {"name": "pre-miR159 duplex (dsRNA)", "RNA 1": "B3 RNA", "RNA 2": "GUAGAGCUCCUUAAAGUUCAAACAUGAGUUGAGCAGGGUAAAGAAAAGCUGCUAAGCUAUGGAUCCCAUAAGCCCUAAUCCUUGUAAAG"}}, "key": {"S-AC4 (SLCMV AC4) [1]": {"target": "T1, S-AC4 (SLCMV AC4) (Sri Lankan cassava mosaic virus)", "T1 chain": "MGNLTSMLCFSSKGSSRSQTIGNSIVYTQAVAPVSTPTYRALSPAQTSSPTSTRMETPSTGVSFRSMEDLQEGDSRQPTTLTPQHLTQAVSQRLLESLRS", "assay": "EMSA", "conditions": "tags: GST fusion (pET41a), Ni-NTA purified; label: 5'-32P"}, "E-AC2 (EACMCV AC2)": {"target": "T2, E-AC2 (EACMCV AC2) (East African cassava mosaic Cameroon …)", "T2 chain": "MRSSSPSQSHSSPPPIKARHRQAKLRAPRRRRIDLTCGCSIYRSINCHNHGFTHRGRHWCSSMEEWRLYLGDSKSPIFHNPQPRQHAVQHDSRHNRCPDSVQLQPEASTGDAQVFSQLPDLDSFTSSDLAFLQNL", "assay": "EMSA", "conditions": "tags: GST fusion (pET41a), Ni-NTA purified; label: 5'-32P"}, "E-AC4 (EACMCV AC4)": {"target": "T3, E-AC4 (EACMCV AC4) (East African cassava mosaic Cameroon …)", "T3 chain": "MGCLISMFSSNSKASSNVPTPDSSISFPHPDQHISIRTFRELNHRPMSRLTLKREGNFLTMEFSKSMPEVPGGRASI", "assay": "EMSA; data not shown", "conditions": "tags: pET41a, Ni-NTA purified; label: 5'-32P"}, "S-AC4 (SLCMV AC4) [2]": {"target": "T1, S-AC4 (SLCMV AC4)", "assay": "EMSA; competed by 10-, 50-, 100-fold unlabelled miR165", "conditions": "tags: GST fusion (pET41a), Ni-NTA purified; label: 5'-32P"}, "S-AC4 (SLCMV AC4) [3]": {"target": "T1, S-AC4 (SLCMV AC4)", "assay": "EMSA; as efficient as unmodified", "conditions": "tags: GST fusion (pET41a), Ni-NTA purified; label: 5'-32P"}, "S-AC4 (SLCMV AC4) [4]": {"target": "T1, S-AC4 (SLCMV AC4)", "assay": "EMSA; text cites SEQ ID NO:29 (DNA probe); RNA oligo listed as SEQ 38", "conditions": "tags: GST fusion (pET41a), Ni-NTA purified; label: 5'-32P"}}, "data": [{"binder": "UUUGGAUUGAAGGGAGCUCUA (ssRNA)", "note": "[miR159]", "values": [{"measurement": "binding result", "setting": "S-AC4 (SLCMV AC4) [1]", "value": "binds"}, {"measurement": "binding result", "setting": "E-AC2 (EACMCV AC2)", "value": "no binding"}, {"measurement": "binding result", "setting": "E-AC4 (EACMCV AC4)", "value": "no binding"}]}, {"binder": "UCGGACCAGGCUUCAUCCCCC (ssRNA)", "note": "[miR165]", "values": [{"measurement": "binding result", "setting": "S-AC4 (SLCMV AC4) [2]", "value": "binds"}]}, {"binder": "UCGGACCAGGCUUCAUCCCCC (ssRNA, 2'-OMe at last (3') nucleotide)", "note": "[2'-O-methyl miR165]", "values": [{"measurement": "binding result", "setting": "S-AC4 (SLCMV AC4) [3]", "value": "binds"}]}, {"binder": "UCCCUGAGACCUCAAGUGUGA (ssRNA)", "note": "[lin-4]", "values": [{"measurement": "binding result", "setting": "S-AC4 (SLCMV AC4) [1]", "value": "binds"}]}, {"binder": "AGGCAGUGUGGUUAGCUGGUUG (ssRNA)", "note": "[miR34]", "values": [{"measurement": "binding result", "setting": "S-AC4 (SLCMV AC4) [1]", "value": "binds"}]}, {"binder": "AUGCGAUACAACCUGAAUCUU (ssRNA)", "note": "[ta-siRNA siR255]", "values": [{"measurement": "binding result", "setting": "S-AC4 (SLCMV AC4) [4]", "value": "binds"}]}, {"binder": "B1", "values": [{"measurement": "binding result", "setting": "S-AC4 (SLCMV AC4) [1]", "value": "binds"}]}, {"binder": "TCGGACCAGGCTTCATCCCCC (ssDNA)", "note": "[DmiR-165 DNA]", "values": [{"measurement": "binding result", "setting": "S-AC4 (SLCMV AC4) [1]", "value": "no binding"}]}, {"binder": "B2", "values": [{"measurement": "binding result", "setting": "S-AC4 (SLCMV AC4) [1]", "value": "no binding"}]}, {"binder": "B3", "values": [{"measurement": "binding result", "setting": "S-AC4 (SLCMV AC4) [1]", "value": "no binding"}]}, {"binder": "B4", "values": [{"measurement": "binding result", "setting": "S-AC4 (SLCMV AC4) [1]", "value": "no binding"}]}, {"binder": "GAGCUCCUUAAAGUUCAAACA (ssRNA)", "note": "[miR159*]", "values": [{"measurement": "binding result", "setting": "E-AC2 (EACMCV AC2)", "value": "no binding"}]}]}
